From patent US20250250357A1 (NANJING ZAIMING PHARMACEUTICAL, published 2025)
Changes are numbered by the printed parent chain.

T1: monkey MSLN full-length protein (NCBI: XP_028696439.1) expressed on HEK293T-monkey MSLN cells (monkey)
T1 construct: Whole encoded precursor
T1 chain: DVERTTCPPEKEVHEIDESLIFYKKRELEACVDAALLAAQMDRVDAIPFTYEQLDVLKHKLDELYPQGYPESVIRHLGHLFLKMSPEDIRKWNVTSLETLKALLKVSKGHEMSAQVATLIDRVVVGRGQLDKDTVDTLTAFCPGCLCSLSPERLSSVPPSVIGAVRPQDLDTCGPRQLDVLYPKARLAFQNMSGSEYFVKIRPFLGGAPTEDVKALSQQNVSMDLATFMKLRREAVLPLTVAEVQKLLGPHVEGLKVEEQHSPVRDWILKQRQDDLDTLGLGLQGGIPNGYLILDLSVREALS

B1: S009-F3.74.20 (antibody, human IgG1, kappa, V domains shown)
VH: RVQLQQSGAELVRPGASVTLSCKASGYTFTDSEMHWVKQTPVHGLEWIGAIDPEIDGTAYNQNFRDKAILTADKSSSTAYMELRSLTSEDSAVYYCTTYFGSGYGYFDVWGTGTTVTVSS
VL: DVVMTQTPLSLSVSLGDQASISCRSSQSLVYSNGNTYLHWFLQKPGQSPKLLIYKVSNRFSGVPDRFSGSGSGTDFTLKINRVEAEDLGVYFCSQSTHIPFTFGAGTKLELKR
notes: human-murine chimeric antibody, human IgG1/kappa constant regions
B2: S009-F3.38.10 (antibody, human IgG1, kappa, V domains shown)
VH: EVQLQQSGPVLVKPGASVKMSCEASGYIFTDYYMNWVKKSHGKSLEWIGVINPKNGVISHNQKFKGKATLTVDKSSNTAYMELSSLTSEDSAVYYCANYGSRFYAMDYWGQGTSVTVSS
VL: DVVMTQTPLSLPVSLGDQASISCRSSQSLIHSDGNTYLQWYLQKSGQSPKLLIYKVSNRFSGVPDRFSGSGSGTDFTLKISRVETEDLGVYFCSQTTHVPFTFGSGTKLEIKR
notes: as for B1
B3: S009-F3.80.22 (antibody, human IgG1, kappa, V domains shown)
VH: QVQLQQSGAELVRPGASVTLSCKASGYTFTDYEIHWVKQTPVHGLEWIGAFDPEIGGSAYNQKFKDRATLTADKSSSTAYMELHSLTAEDSAVYYCTDYYGSSSGYFDVWGTGTTVTVSS
VL: B2 VL with I30E, S32N, D33N, Q39H, Y41F, Q43H, S45P, T85A, T96S
notes: as for B1
B4: S009-F3-63.5 (antibody, human IgG1, kappa, V domains shown)
VH: QVQLQQSGAELVRPGASVTLSCKASGYTFTDYEMHWVKQTPVHGLEWIGGIDPETGDTAYNQQFKGKAILTADRSSSTAYMELRSLTSEDSAVYYCTNYASSREDYWGQGTTLTVSS
VL: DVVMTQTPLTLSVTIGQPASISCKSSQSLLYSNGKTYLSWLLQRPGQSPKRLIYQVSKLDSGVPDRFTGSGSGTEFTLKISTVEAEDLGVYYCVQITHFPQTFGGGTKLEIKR
notes: as for B1
B5: S009-F3.51.8 (antibody, human IgG1, kappa, V domains shown)
VH: QVQLQQSGAELVRPGASVTLSCKASGYTFTDYEMHWVKQTPVHGLEWIGGFDPETGGTAHNQKFKGKAILTADKSSSTAYMELRSLTSEDSAVYYCSNYGSIWGDCWGQGTSVTVSS
VL: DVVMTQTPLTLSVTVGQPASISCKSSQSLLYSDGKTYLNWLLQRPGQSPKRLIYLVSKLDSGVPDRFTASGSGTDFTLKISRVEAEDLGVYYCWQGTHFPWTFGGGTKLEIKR
notes: as for B1
B6: S009-F3.45.21 (antibody, human IgG1, kappa, V domains shown)
VH: DVQLQESGPGLVKPSQSLSLTCSVTGDSITSGYYWNWIRQFPGNKLEWMGFIRFDGTNNYNPSLKNRISITRDTSKNQFFLKLNSVTTEDTATYYCAREGSYAPAWFAYWGQGTLVTVSA
VL: QIVLTQSPAIMSASPGEKVTMTCSASSSLSYMYWYQQKPGSSPRLLIYDTSNLASGVPVRFSGSGSGTSYSLTISRMEAEDAATYYCQQWSSYPPTFGGGTKLEIKR
notes: as for B1
B7: Tab106 (YP218, hIgG1) (antibody, V domains shown)
VH: QQQLEESGGGLVKPEGSLTLTCKASGFDLGFYFYACWVRQAPGKGLEWIACIYTAGSGSTYYASWAKGRFTISKASSTTVTLQMTSLAAADTATYFCARSTANTRSTYYLNLWGPGTLVTVSS
VL: DVVMTQTPASVSEPVGGTVTIKCQASQRISSYLSWYQQKPGQRPKLLIFGASTLASGVPSRFKGSGSGTEYTLTISDLECADAATYYCQSYAYFDSNNWHAFGGGTEVVVRT
notes: Control antibody; also called YP218 human IgG1 antibody
B8: S009-F1.56.1 (antibody, human IgG1, kappa, V domains shown)
VH: EVQLQQSGAEVVKPGASVKLSCTASGFNIRHTYMHWVKQRPEQGLEWIGRIDPANGNTEYDPKFQGKATITADTSSNTAYLQLSSLTSEDTAVYYCARDGWYIDVWGAGTTVTVSS
VL: DIVMSQSPSSLAVSVGEKVTMSCKSSQSLLYSNNQKNYLAWYQQKPGQSPKLLIYWASTRESGVPDRFTGSGSGTDFTLTISSVKAEDLAVYYCQRYYSYPWTFGGGTKLEIKR
notes: as for B1
B9: S009-F2.13.3 (antibody, human IgG1, kappa, V domains shown)
VH: QVQLQQSGAELMKPGASVKLSCKATGYTFTGYWIEWVKQRPGHGLEWIGEILPGSGSTNYNEKFKGKATFTADTSSNTAYMQLSSLTTEDSAIYYCARAGAWFAYWGQGTLVTVSA
VL: QIVLTQSPAIMSASLGERVTMTCTASSSVSSSYLHWYQQKPGSSPKLWTYSTSNLASGVPARFSGSGSGTSYSLTISSMEAEDAATYYCHQYHRSPWTFGGGTKLEIKR
notes: as for B1
B10: S009-F1.35.24 (antibody, human IgG1, kappa, V domains shown)
VH: EVQLQQSEPELVKPGASVRISCKASGYSFTDYYMHWVKQSPENRLEWIGEINPSTGGTSYNPKFKDKATLTVDKSSSTAYMQLKSLTSEESAVYYCTRYHYYGSSSYVMDYWGQGTSVTVSS
VL: QIVLTQSPAILSASPGERVTMTCSASSSVYHMHWFQQKSGTSPKRWVYDTSKLASGVPARFSGSGSGTSYSLTISSMEAEDAATYYCQHWRTNPLTFGAGTKLELKR
notes: as for B1

target: T2, human MSLN protein endogenously expressed on OVCAR3 tumor cells (human, UniProt Q13421 296-598); experiment: FACS on OVCAR3 cells
T2 construct: whole, on cells; Endogenous target on OVCAR3 cells; kept apart from the recombinant full-length construct; also called mesothelin
T2 sequence (Q13421 other isoform, or with tags, fused parts or gaps): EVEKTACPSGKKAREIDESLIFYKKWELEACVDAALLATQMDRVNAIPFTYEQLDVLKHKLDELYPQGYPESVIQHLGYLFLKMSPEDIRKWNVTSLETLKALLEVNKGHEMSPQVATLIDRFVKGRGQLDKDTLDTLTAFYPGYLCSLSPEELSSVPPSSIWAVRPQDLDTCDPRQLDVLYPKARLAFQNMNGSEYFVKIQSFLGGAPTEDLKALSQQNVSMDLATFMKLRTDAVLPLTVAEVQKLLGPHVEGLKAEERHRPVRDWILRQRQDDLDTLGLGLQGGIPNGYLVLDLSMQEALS
Method: (§1) The desired cells were expanded to the logarithmic growth phase in a T-75 cell culture flask. […] After the cells from the previous step were subjected to cell counting, the cell pellet was resuspended to 2×10⁶ cells/mL in a blocking buffer of [PBS+2% (w/w) BSA] and added into a 96-well FACS reaction plate at 50 μL/well. A chimeric antibody (a sample to be tested) was added at 50 μL/well, and the plate was incubated on ice for 2 h. […] After the plate was centrifuged and washed 5 times with a PBST buffer, assay and analysis were performed by FACS (FACS CantoII, purchased from BD). Data analysis was performed by software (Flowjo) to obtain the mean fluorescence intensity (MFI) of the cells.

Row | Maximum mean fluorescence intensity | EC50 [nM] | Binder
1 | 613 | – | B1
2 | 2620 | – | B2
3 | 263 | – | B3
4 | 227 | – | B4
5 | 337 | – | B5
6 | 9710 | 5.61 | B6

target: T3, human MSLN full-length protein (NCBI: AAH09272.1) expressed on HEK293T-hMSLN-B8 cells (human, UniProt Q13421 296-598); experiment: FACS on HEK293T-hMSLN-B8 cells
T3 construct: Whole encoded precursor
T3 sequence (Q13421 other isoform, or with tags, fused parts or gaps limits assumed): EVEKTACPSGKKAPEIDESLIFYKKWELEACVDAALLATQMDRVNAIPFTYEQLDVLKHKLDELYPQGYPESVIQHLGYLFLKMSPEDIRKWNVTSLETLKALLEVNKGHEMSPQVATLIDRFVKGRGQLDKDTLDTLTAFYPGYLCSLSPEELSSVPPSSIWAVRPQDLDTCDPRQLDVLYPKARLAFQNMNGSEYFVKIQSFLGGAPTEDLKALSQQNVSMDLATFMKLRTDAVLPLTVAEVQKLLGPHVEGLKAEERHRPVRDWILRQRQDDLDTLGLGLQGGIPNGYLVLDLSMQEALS
Method: as §1

Row | EC50 [nM] | Maximum mean fluorescence intensity | Binder
7 | 8.68 | 36400 | B1
8 | 6.84 | 80600 | B2
9 | 36.4 | 24700 | B3
10 | – | 35400 | B4
11 | 21.8 | 27900 | B5
12 | 1.41 | 97600 | B6

target: T4, human MSLN-R3 protein (Met487-Ser606 of NCBI AAH09272.1) expressed on HEK293T-hMSLN-R3 cells (human, UniProt Q13421 487-606); experiment: FACS on HEK293T-hMSLN-R3 cells
T4 construct: also called Region3
T4 sequence (Q13421 495-614): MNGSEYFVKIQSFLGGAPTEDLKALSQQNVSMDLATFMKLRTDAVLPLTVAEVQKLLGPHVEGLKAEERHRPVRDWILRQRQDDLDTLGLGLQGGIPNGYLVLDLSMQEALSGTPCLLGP
Method: as §1

Row | EC50 [nM] | Maximum mean fluorescence intensity | binding result | Binder
13 | 0.62 | 5070 | – | B1
14 | 3.41 | 6770 | – | B2
15 | 0.99 | 4800 | – | B3
16 | 1.18 | 8270 | – | B4
17 | 0.75 | 4470 | – | B5
18 | – | 81 | no binding | B6

target: T4, human MSLN-R3 protein (Met487-Ser606 of …); experiment: FACS on HEK293T-hMSLN-R3 cells; remark: another data set of the same source
Method: as §1

Row | EC50 [nM] | Maximum mean fluorescence intensity | Binder
19 | 0.28 | 25400 | B7

target: T4, human MSLN-R3 protein (Met487-Ser606 of …); experiment: FACS on HEK293T-hMSLN-R3 cells; remark: another data set of the same source
Method: as §1

Row | EC50 [nM] | Maximum mean fluorescence intensity | Binder
20 | 0.65 | 7460 | B7

Target: T1, monkey MSLN full-length protein (NCBI: …)
Experiment: FACS on HEK293T-monkey MSLN cells
Method: as §1

Row | Maximum mean fluorescence intensity | EC50 [nM] | binding result | Binder
21 | 188 | – | – | B1
22 | 22300 | 4.63 | – | B2
23 | 57 | – | no binding | B3
24 | 105 | – | no binding | B4
25 | 88 | – | no binding | B5
26 | 41100 | 0.56 | – | B6

target: T5, human MSLN-FL-his protein (human, UniProt Q13421 296-580); experiment: competitive ELISA; row F1.2.12; note: test concentration or dose not given here
T5 construct: made in HEK293E cells, purified on nickel column; also called hMSLN-FL-his; human MSLN full-length protein; not shown: His tag
T5 sequence (Q13421 other isoform, or with tags, fused parts or gaps): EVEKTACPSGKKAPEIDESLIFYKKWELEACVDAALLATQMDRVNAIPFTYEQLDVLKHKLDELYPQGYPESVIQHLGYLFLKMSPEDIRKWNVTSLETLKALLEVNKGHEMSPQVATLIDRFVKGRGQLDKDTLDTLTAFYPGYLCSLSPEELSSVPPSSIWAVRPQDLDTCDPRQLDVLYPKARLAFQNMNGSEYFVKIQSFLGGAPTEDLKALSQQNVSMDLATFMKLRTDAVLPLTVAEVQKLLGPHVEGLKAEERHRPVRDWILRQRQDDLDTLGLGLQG

Row | competition rate [%] | Binder
27 | 75 | B8
28 | 23 | B9
29 | -15 | B10

target: T5, human MSLN-FL-his protein; experiment: competitive ELISA; row F1.56.1; note: test concentration or dose not given here

Row | competition rate [%] | Binder
30 | 104 | B8
31 | -426 | B9
32 | 97 | B10

target: T5, human MSLN-FL-his protein; experiment: competitive ELISA; row F2.13.3; note: test concentration or dose not given here

Row | competition rate [%] | Binder
33 | -588 | B8
34 | 84 | B9
35 | 29 | B10

target: T5, human MSLN-FL-his protein; experiment: competitive ELISA; row F2.17.3
Method: In order to identify antigen-binding sites of antibodies, MSLN chimeric antibodies were grouped using competitive ELISA.
The chimeric antibodies were diluted to 2 μg/mL with PBS and allowed to coat 96-well high-adsorption ELISA plates at 50 μL/well. After the plates were coated at 4° C. overnight, 250 μL of a blocking buffer (PBS containing 2% (w/w) BSA) was added for two hours of blocking at room temperature. 40 μg/mL of the antibodies to be tested were added, and then the human MSLN-FL-His protein with an EC₈₀ concentration corresponding to each of the antibodies to be tested was added for incubation for 2 h. The plates were washed 5 times with PBS, an HRP-labeled anti-His secondary antibody (purchased from Genescript, Cat. No. A00612) was then added for incubation for 1 h, and the plates were washed 5 times again. A TMB substrate was added at 50 μL/well, and after 10 minutes of incubation at room temperature, a stop solution (1.0 M HCl) was added at 50 μL/well. OD₄₅₀ nm values were read using an ELISA plate reader (Insight, purchased from PerkinElmer), and the competition rate between the antibodies was calculated according to the OD₄₅₀ nm values using a formula.

Row | competition rate [%] | Binder
36 | -6 | B8
37 | -11 | B9
38 | 59 | B10

target: T5, human MSLN-FL-his protein; experiment: competitive ELISA; row F2.39.3; note: test concentration or dose not given here

Row | competition rate [%] | Binder
39 | 69 | B8
40 | 13 | B9
41 | 67 | B10

target: T5, human MSLN-FL-his protein; experiment: competitive ELISA; row F2.58.8; note: test concentration or dose not given here

Row | competition rate [%] | Binder
42 | 107 | B8
43 | -86 | B9
44 | 100 | B10

target: T5, human MSLN-FL-his protein; experiment: competitive ELISA; row F1.35.24; note: test concentration or dose not given here

Row | competition rate [%] | Binder
45 | 79 | B8
46 | 7 | B9
47 | 100 | B10

target: T5, human MSLN-FL-his protein; experiment: competitive ELISA; row F2.16.10; note: test concentration or dose not given here

Row | competition rate [%] | Binder
48 | -7 | B8
49 | -41 | B9
50 | 31 | B10

target: T5, human MSLN-FL-his protein; experiment: competitive ELISA; row F2.24.10; note: test concentration or dose not given here

Row | competition rate [%] | Binder
51 | -39 | B8
52 | -65 | B9
53 | 13 | B10

target: T5, human MSLN-FL-his protein; experiment: competitive ELISA; row Tab108 (R3); note: test concentration or dose not given here

Row | competition rate [%] | Binder
54 | -36 | B8
55 | -105 | B9
56 | 62 | B10

target: T5, human MSLN-FL-his protein; experiment: competitive ELISA; row Tab142 (R1); note: test concentration or dose not given here

Row | competition rate [%] | Binder
57 | 9 | B8
58 | -33 | B9
59 | 49 | B10

target: T5, human MSLN-FL-his protein; experiment: SPR (Biacore), antibody captured on Protein A chip;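 note: measured at 25 °C, analyte injected 240 s in five twofold dilutions from 200 nM, dissociation up to 600 s, double-referenced, fitted with Langmuir 1:1 model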
Method: The flow cell was set at 25° C. The sample block was set at 16° C. Both were pretreated with the running buffer. In each cycle, first, the antibody to be tested was captured using the Protein A chip, and then a single concentration of human MSLN-FL-his protein was injected. […] The association was determined by injecting different concentrations of human MSLN-FL-his in solution for 240 s on end, wherein the flow rate was 30 μL/min, and the protein was diluted in a 1:1 dilution ratio from 200 nM (see detailed results for actual concentrations tested) to obtain 5 concentrations in total. The dissociation phase was monitored for up to 600 s and triggered by switching from the sample solution to the running buffer. The surface was regenerated by washing with 10 mM glycine solution (pH 1.5) at a flow rate of 30 μL/min for 30 s. The difference in bulk refractive index was corrected by subtracting the responses obtained from the goat anti-human Fc surface. Blank injections were also subtracted (=double reference). To calculate the apparent KD and other kinetic parameters, the Langmuir 1:1 model was used.

Row | Kd [nM] | koff [s⁻¹] | kon [M⁻¹ s⁻¹] | Binder
60 | 0.889 | 0.00071 | 799000 | B8
61 | 8.65 | 0.00189 | 219000 | B9
62 | 0.914 | 8.51e-05 | 93100 | B10

target: T5, human MSLN-FL-his protein; experiment: competitive ELISA; row Tab107 (conformation); note: test concentration or dose not given here

Row | competition rate [%] | Binder
63 | -35 | B8
64 | -54 | B9
65 | 36 | B10
